Measurements from US20260184814A1, “BROADLY NE[…] INFLUENZA NEURAMINIDASE” (priority 2022, published 2026).
Where a chain is given by its changes, count along the chain named.

B1: FNI9-v4.1 (antibody, V domains shown)
VH: QVHLVQSGAEVKEPGSSVTVSCKASGGSFSNQAISWVRQAPGQGLEWMGGIFPISGTPTSAQRFQGRVTFTADESTTTVYMDLSSLRSDDTAVYYCARAGSDYFNRDLGWENYYFASWGQGTLVTVSS
VL: EIVMTQSPATLSLSSGERATLSCRASRSVSSNLAWYQQKPGQAPRLLIYDASTRATGFSARFAGSGSGTEFTLTISSLQSEDSAIYYCQQYNNWPPWTFGQGTKVEIK
B2: Fab FNI9-v8.1 (Fab, V domains shown)
VH: B1 VH with S28T, S30N
VL: B1 VL
B3: Fab FNI9-v4.1 (Fab, V domains shown)
VH: B1 VH
VL: B1 VL
B4: FNI9-v9.1 (antibody, V domains shown)
VH: B1 VH with S30N, P58A, F70I
VL: B1 VL
B5: FNI9-v8.1 (antibody, V domains shown)
VH: B1 VH with S28T, S30N
VL: B1 VL

Experiments:
[1] = molecular target: N2 neuraminidase from H3N2 A/Tanzania/205/2010 (Influenza A virus A/Tanzania/205/2010 (H3N2))
[2] = molecular target: N9 Hong Kong/56/2015 (Influenza A virus); assay: SPR (Biacore), NA on anti-Avi chip, 1:1 model; NA code N9
[3] = molecular target: A/N1 Vietnam/1203/2004 (Influenza A virus); assay: SPR (Biacore), NA on anti-Avi chip, 1:1 model; NA code NA-3
[4] = molecular target: B/Perth/211/2011 (Influenza B virus); assay: SPR (Biacore), NA on anti-Avi chip, 1:1 model; NA code BNA-2
[5] = molecular target: B/Massachusetts/02/2012(Yamagata) (Influenza B virus); assay: SPR (Biacore), NA on anti-Avi chip, 1:1 model; NA code BNA-3
[6] = molecular target: B/Brisbane/602008 or 33/2008 (Victoria) (Influenza B virus); assay: SPR (Biacore), NA on anti-Avi chip, 1:1 model; NA code BNA-6
[7] = molecular target: IBV neuraminidase from B/Malaysia/2506/2004 (Victoria) (Influenza B virus B/Malaysia/2506/2004); assay: SPR (Biacore), NA on anti-Avi chip, 1:1 model; NA code BNA-7
[8] = molecular target: N2 A/Switzerland/8060/2017 (82-469) (Influenza A virus); assay: SPR (Biacore), NA on anti-Avi chip, 1:1 model; NA code NA-16 (+glyc245)
[9] = molecular target: N2 A/Hong_Kong/2671/2019 (82-469) (Influenza A virus); assay: SPR (Biacore), NA on anti-Avi chip, 1:1 model; NA code NA-18 (+glyc245)
[10] = molecular target: N2 neuraminidase from A/South Australia/34/2019 (Influenza A virus A/South Australia/34/2019); assay: SPR (Biacore), NA on anti-Avi chip, 1:1 model; NA code NA-17, 82-469 (+glyc245)
[11] = molecular target: N2 neuraminidase from H3N2 A/Tanzania/205/2010 (Influenza A virus A/Tanzania/205/2010 (H3N2)); assay: SPR; NA-5; set-up: unit not given beside the values
[12] = molecular target: N2 neuraminidase from A/South Australia/34/2019 (Influenza A virus A/South Australia/34/2019); assay: SPR; NA-17; set-up: unit not given beside the values
[13] = molecular target: N2 A/Hong_Kong/2671/2019 (82-469) (Influenza A virus); assay: SPR; NA-18; set-up: unit not given beside the values
[14] = molecular target: N2 neuraminidase from H3N2 A/Tanzania/205/2010 (Influenza A virus A/Tanzania/205/2010 (H3N2)); assay: SPR, 1:1 binding; NA-5 "-glyc245"
[15] = molecular target: N2 neuraminidase from A/South Australia/34/2019 (Influenza A virus A/South Australia/34/2019); assay: SPR, 1:1 binding; NA-17 "+glyc245"
[16] = molecular target: N2 A/Hong_Kong/2671/2019 (82-469) (Influenza A virus); assay: SPR, 1:1 binding; NA-18 "+glyc245"
[17] = molecular target: N9 NA (FIGS. 96A-96C); assay: Bio-Layer Interferometry (BLI)
[18] = molecular target: N9 NA (FIGS. 96A-96C); assay: Bio-Layer Interferometry (BLI); printed as ka
[19] = molecular target: N9 NA (FIGS. 96A-96C); assay: Bio-Layer Interferometry (BLI); printed as kdis

Row | Binder | fold-change in affinity compared to FNI9-v1.1 [1] | fold-change in affinity compared to FNI9-v1.1 [2] | fold-change in affinity compared to FNI9-v1.1 [3] | fold-change in affinity compared to FNI9-v1.1 [4] | fold-change in affinity compared to FNI9-v1.1 [5] | fold-change in affinity compared to FNI9-v1.1 [6] | fold-change in affinity compared to FNI9-v1.1 [7] | fold-change in affinity compared to FNI9-v1.1 [8] | fold-change in affinity compared to FNI9-v1.1 [9] | fold-change in affinity compared to FNI9-v1.1 [10] | KD compared to v1.1 [11] | KD compared to v1.1 [12] | KD compared to v1.1 [13] | Kd [14] | Kd [15] | Kd [16] | Kd [17] | kon [18] | koff [19]
1 | B1 | 1.76 | 1.31 | 1.06 | 1.48 | 1.24 | 0.78 | 1.44 | 1.06 | 1.85 | 1.3 | – | – | – | – | – | – | – | – | –
2 | B2 | – | – | – | – | – | – | – | – | – | – | 0.78 | 0.78 | 0.83 | 2.57 nM | 99.5 nM | 8.64 nM | – | – | –
3 | B3 | – | – | – | – | – | – | – | – | – | – | 1.63 | 1.04 | 1.91 | 5.35 nM | 133 nM | 19.9 nM | – | – | –
4 | B4 | 0.81 | 8.43 | 0.93 | 1.59 | 0.92 | 0.81 | 1.53 | 0.93 | 1.15 | 2.99 | – | – | – | – | – | – | 0.19 nM | 456000 M⁻¹ s⁻¹ | 8.66e-05 s⁻¹
5 | B5 | 0.98 | 1.1 | 1.98 | 1.03 | 1.17 | 0.92 | 1.35 | 0.98 | 0.4 | 1.2 | – | – | – | – | – | – | < 0.001 nM | 463000 M⁻¹ s⁻¹ | < 1e-07 s⁻¹
